This assay addresses Tenascin-C (Mus musculus, UniProt Q80YX1, FITC-labelled tenascin-C). Kind of assay: isothermal fluorescence titration.

B1: CCL26 (protein)
chain: TRGSDISKTCCFQYSHKPLPWTWVRSYEFTSNSCSQRAVIFTTKRGKKVCTHPRKKWVQKYISLLKTPKQL
Take B1: binding was put at a Kd of 270 nM.

As a reminder, the Kd is the constant that tells how readily two partners part at equilibrium.

Source of the values: PMC10572825 (2023).
